Publication PMC7962585 (Cell, 2021)

B1: S2L28 IgG1 (antibody, V domains shown)
VH: EVQLVESGGGLVNPGGSLRLSCAASGFTFSDYTIHWVRQAPGKGLEWVSSISSSSNYIYYADSVKGRFTISRDNAKNSLSLQMNSLRAEDTAVYYCARDGNAYKWLLAENVRFDYWGQGTLVTVSS
VL: VTQPASVSGSPGQSITISCTGTSSDVGGYNYVSWYQQHPGKAPKLMIYDVSDRPSGVSNRFSGSKSGNTASLTISGLQAEDEADYYCSSYTSSSTPNWVFGGGTKLT
B2: S2M28 IgG1 (antibody, V domains shown)
VH: EVQLVESGGGVVQPGRSLRLSCAASGFTFSSYGMHWVRQAPGKGLEWVTVIWYDGSNRYYADSVKGRFTISRDNSKNTLYLQMDSLRAEDTAVYYCARAVAGEWYFDYWGQGTLVTVSS
VL: SYELTQPPSVSVSPGQTARITCSGDALAKHYAYWYRQKPGQAPVLVIYKDSERPSGIPERFSGSSSGTTVTLTISGVQAEDEADYYCQSADSIGSSWVFGGGTKLTVL
B3: S2X333 IgG1 (antibody, V domains shown)
VH: VQLVESGGGVVQPGRSLRLSCAASGFTFSNYGMHWVRQAPGKGLEWVAVIWYDGSNKFYADSVKGRFTISRDNSKNSLYLQMNSLRAEDTAVYFCARAFPDSSSWSGFTIDYWGQGTLVTV
VL: YELTQPPSVSTARITCGGNNIERKSVHWCQQKPGQAPALVVYDDSDRPSGIPERFSGSNSGNTATLTISRVEAGDEADYYCQVWDSGSDQVIFGGGTKLT

Each binder was assayed against full-length wild-type SARS-CoV-2 S (Severe acute respiratory syndrome …, UniProt P0DTC2) (assay: flow cytometry on cells).
B1: binds.
B2: binds.
B3: binds.
